“Also recorded” adds a separate entry of the source.
Experiments:
[1] = tested on: Citrated blood of healthy donors; assay: In vitro closure time with Innovance PFA-200; type: cell-based; settings: human blood ex vivo; for PFA-200 closure time, COL/ADP cartridges / PFA-200 closure time, COL/EPI cartridges: GPVI-CD39 21.7 to 217 nmol/L, versus PBS buffer control
Source text: (§1) Informed consent was obtained as approved by the local Ethics Committee. An overall number of 58 healthy volunteers was included into the study: blood samples from 39 subjects were taken for in vitro experiments using vascular agonists, and blood samples from 19 subjects for experiments involving human plaque material.
Citrated blood of healthy donors was mixed with antagonist in concentrations indicated in the figures, and added to Dade® PFA COL/EPI, Dade® PFA COL/ADP, or Innovance® PFA P2Y test cartridges (Siemens Healthcare, Erlangen, Germany). Blood was aspirated under high shear conditions (>5000/s) through a capillary onto a membrane with a small aperture coated with substances which activate platelets and lead to closure of this aperture. The time until closure of this aperture is monitored and expressed as in vitro closure time with a maximum closure time of 300 s.

platelets = assay: Plaque-induced platelet aggregation under flow; type: cell-based; settings: 150 nM GPVI-CD39
[2] = Pharmacokinetic analysis: protein concentration in plasma by Fc-specific sandwich ELISA; type: in vivo, mouse; settings: mice, 4 mg/kg IV
Procedure: (§2) ale and female wild type C57BL/6J mice of the age of 12-22 weeks were used in this small scale study. An overall number of 9 mice were investigated. GPVI-CD39 or solCD39 were applied in a volume of 5 ml/kg into the right tail vein. At time points indicated in the figure blood sampling was performed by incision of the left tail vein using 25 μl heparinized capillaries. Blood samples were recovered by centrifugation at 2400×g for 10 min. The upper plasma phase was transferred to fresh tubes and stored frozen at −20° C.
The concentration of GPVI-CD39 or Fc control protein in plasma samples was determined by Fc-specific sandwich ELISA. Wells of a MaxiSorp 96-well plate (Thermo Fisher Scientific, Waltham, Mass.) were coated with 0.1 μg/well goat-anti-human Fcγ antibody. Wells were washed three times with phosphate-buffered saline and tween-20 (PBST) between incubations. After blocking with 3% skimmed milk in PBST wells were incubated for 1 h with 50 μl of plasma from GPVI-CD39 treated (1:200) or Fc (1:500) treated mice diluted in PBST. Wells were incubated for 1 h with 100 μl of 80 ng/ml goat-anti-human IgG (H+L)-POD detection antibody. POD activity was visualized using 100 μl of Ultra TMB-ELISA substrate (Thermo Fisher Scientific, Waltham, Mass.) and signal intensities were read with a Tecan Infinite F200 ELISA reader.

human platelets = assay: Platelet aggregation in human blood under static conditions (Multiplate impedance aggregometry); type: cell-based; settings: for inhibition of ADP-induced platelet aggregation: 6.5 μM ADP, equimolar concentrations; for inhibition of ADP-induced platelet aggregation / inhibition of collagen-induced platelet aggregation: human blood; for inhibition of platelet aggregation triggered by human plaque material: same concentrations
Procedure: as §1
The effect of GPVI-CD39 and control proteins on platelet aggregation was analyzed using the Multiplate® device (25). 1:1 diluted hirudin-anticoagulated blood was pre-incubated with antagonist for 3 min in the test cell without stirring to avoid platelet pre-activation (26). Agonist was added and samples were incubated for 6 min at 37° C. with stirring. The following agonists were used: 6.5 μM ADP, 12 μg/ml collagen isolated from rabbit aorta, or 103 μg/ml collagen type I secreted by human fibroblasts (VitroCol®, Advanced BioMatrix, San Diego, Calif.). Platelet aggregation was measured in arbitrary units over the time period (arbitrary units (AU)*min) (cumulative aggregation values).

C57BL/6J wild type mice = assay: In vivo thrombus formation after FeCl3 injury in carotid arteries; parameters: species or system mouse
Procedure: For examination of arterial thrombus formation in vivo, 6-8 weeks old C57BL/6J wild type mice were anesthetized by injection of midazolame (5 mg/kg body weight), medetomidine (0.5 mg/kg body weight) and fentanyl (0.05 mg/kg body weight). In the ferric chloride model, an overall number of 21 mice was studied.
The common carotid artery was dissected free and the mice were injected intravenously 30 minutes before carotid injury with GPVI-CD39 (3 mg/kg body weight) or its control and with GP1bα-488 (Emfret Analytics, Eibelstadt, Germany) for platelet visualization. The carotid was exteriorized and injured by topical application of a filter paper saturated with 15% ferric chloride for 1 minute. Thrombus formation in arteries was monitored for 20 minutes or until complete occlusion (stop of blood flow for >1 min). Digital films and images were recorded with a Nikon eclipse intravital microscope and analysed offline.

[3] = ADPase activity of purified protein (Malachite Green phosphate detection); type: biochemical; settings: purified protein at various concentrations, 200 μM ADP, 37° C., pH 7.5
Procedure: (§3) Various concentrations of GPVI-CD39 or solCD39 protein or plasma samples from the pharmacokinetic study diluted 1:500-1:2000 in assay buffer were incubated in 25 mM Tris-HCl, 5 mM CaCl2, pH 7.5 with 200 μM ADP in a total volume of 100 μl for 30 min or 5 min at 37° C. Enzymatically released Pi was detected using the Malachite Green Phosphate Detection Kit (R&D Systems, Minneapolis, Minn.) according to the supplier's manual. A serial dilution of Pi standard was analyzed in parallel which facilitates quantification of released Pi. Absorbance was measured at a wave length of 630 nm using a Tecan Infinite 200 ELISA reader. Enzymatic activity of purified protein was calculated taking incubation time and protein amount into account and expressed as Units per mg of protein.

C57BL/6J mice = assay: In vivo tail bleeding time in mice; parameters: species or system mouse; settings: 15 min after IV 13 nmol/kg (4 mg/kg GPVI-CD39, 2 mg/kg GPVI-Fc), versus vehicle or buffer
Procedure: Test or control substances were applied into the tail vein of C57BL/6J mice. Animals were anesthetized by intraperitoneal injection of 0.5 mg/kg medetomidine, 5 mg/kg midazolame, and 0.05 mg/kg fentanyl. 10 min after protein delivery a blood sample of 20 μl was drawn for analysis of recombinant protein content and ADPase activity using a heparinized capillary. 15 min after protein application the distal 2 mm of the tail were cut off, the tail was immediately immersed into pre-warmed PBS (37° C.) buffer and time-monitored until bleeding stopped for at least 30 s. […] Animals were sacrificed and a final blood sample stored for analysis.

[4] = ADPase activity in plasma samples from the pharmacokinetic study; type: in vivo, mouse; settings: mice, IV 4 mg/kg GPVI-CD39 or 2 mg/kg solCD39, up to 48 h
Procedure: as §3, §2

[5] = 103 μg/ml collagen secreted by human fibroblasts (VitroCol)
[6] = human plaque material 333 μg/ml

Row | Molecule | PFA-200 closure time, COL/ADP cartridges [1] | PFA-200 closure time, COL/EPI cartridges [1] | PFA-200 closure time, P2Y cartridges ([1]; 1.9 μM) | inhibition of plaque-induced platelet aggregation (platelets) | plasma concentration time course [2] | mean plasma concentration ([2]; 5 min after application) | plasma concentration ([2]; after 48 h) | inhibition of ADP-induced platelet aggregation (human platelets) | inhibition of collagen-induced platelet aggregation (human platelets; 12 μg/ml collagen isolated from rabbit aorta) | inhibition of collagen-induced platelet aggregation (human platelets; [5]) | IC50 (human platelets; human plaque material 333 μg/ml, approximate, read-out: IC50 of inhibition of platelet aggregation triggered by human plaque material) | inhibition of platelet aggregation triggered by human plaque material (human platelets; [6]) | time to vessel occlusion (C57BL/6J wild type mice; 15% ferric chloride carotid injury, 3 mg/kg (10 nmol/kg) IV) | effect on ferric chloride-induced thrombus formation / occlusion time (C57BL/6J wild type mice; 15% ferric chloride, 10 nmol/kg IV (3 mg/kg GPVI-CD39, 1.5 mg/kg GPVI-Fc), versus vehicle) | mean ADPase activity (specific activity) [3] | tail bleeding time (C57BL/6J mice) | PFA-200 closure time, P2Y cartridges ([1]; 47 nmol/L) | PFA-200 closure time, P2Y cartridges ([1]; 217 nmol/L) | ADPase activity in plasma over time [4]
1 | CC(=O)Oc1ccccc1C(=O)O [ASA, acetyl salicylic acid, reference compound] | No significant differences between groups | inhibited the closure of the aperture completely; also recorded: significantly (p=0.04) prolonged | – | – | – | – | – | – | – | – | – | – | – | – | – | – | – | – | –
2 | CCCSc1nc(N[C@@H]2C[C@H]2c2ccc(F)c(F)c2)c2nnn([C@@H]3C[C@H](OCCO)[C@@H](O)[C@H]3O)c2n1 [ticagrelor, reference compound] | No significant differences between groups | – | prolongations | – | – | – | – | – | – | – | – | – | – | – | – | – | – | – | –
3 | GPVI-CD39: fusion protein of extracellular domain of platelet glycoprotein VI, Fc of human IgG2 and extracellular domain of human CD39, 15 amino acid linker (SEQ ID NO: 1) (protein, listed as Homo sapiens) QSGPLPKPSLQALPSSLVPLEKPVTLRCQGPPGVDLYRLEKLSSSRYQDQAVLFIPAMKRSLAGRYRCSYQNGSLWSLPSDQLELVATGVFAKPSLSAQPGPAVSSGGDVTLQCQTRYGFDQFALYKEGDPAPYKNPERWYRASFPIITVTAAHSGTYRCYSFSSRDPYLWSAPSDPLELVVTGTSVTPSRLPTEPPSSVAEFSEATAELTVSFTNKVFTTETSRSITTSPKESDSPAGPARQYYTKGNGGRVECPPCPAPPVAGPSVFLFPPKPKDTLMISRTPEVTCVVVDVSHEDPEVQFNWYVDGVEVHNAKTKPREEQFNSTFRVVSVLTVVHQDWLNGKEYKCKVSNKGLPAPIEKTISKTKGQPREPQVYTLPPSREEMTKNQVSLTCLVKGFYPSDIAVEWESNGQPENNYKTTPPMLDSDGSFFLYSKLTVDKSRWQQGNVFSCSVMHEALHNHYTQKSLSLSPGKGGGGSGGGGSGGGGSTQNKALPENVKYGIVLDAGSSHTSLYIYKWPAEKENDTGVVHQVEECRVKGPGISKFVQKVNEIGIYLTDCMERAREVIPRSQHQETPVYLGATAGMRLLRMESEELADRVLDVVERSLSNYPFDFQGARIITGQEEGAYGWITINYLLGKFSQKTRWFSIVPYETNNQETFGALDLGGASTQVTFVPQNQTIESPDNALQFRLYGKDYNVYTHSFLCYGKDQALWQKLAKDIQVASNEILRDPCFHPGYKKVVNVSDLYKTPCTKRFEMTLPFQQFEIQGIGNYQQCHQSILELFNTSYCPYSQCAFNGIFLPPLQGDFGAFSAFYFVMKFLNLTSEKVSQEKVTEMMKKFCAQPWEEIKTSYAGVKEKYLSEYCFSGTYILSLLLQGYHFTADSWEHIHFIGKIQGSDAGWTLGYMLNLTNMIPAEQPLSTPLSHST | no significant increase of closure times; also recorded: No significant differences between groups | no significant increase of closure times | – | 81% | decreased rapidly in the course of two hours | 95 µg/mL | 6 µg/mL | Effective inhibition; also recorded: markedly reduces ADP-induced platelet aggregation | highly significant, dose-dependent inhibition; also recorded: reduces platelet aggregation more strongly than GPVI-Fc alone | inhibited platelet aggregation significantly; also recorded: reduces platelet aggregation more strongly than GPVI-Fc alone | ~30 nM | dose-dependent inhibition | 1083 s | fully effective in inhibiting arterial thrombosis; also recorded: strongly delayed ferric chloride-induced thrombus formation | 11.2±4.0 U/mg | no differences; also recorded: no effect on systemic bleeding times | statistically significant increase in closure time | statistically significant increase in closure time | diminished rapidly during the first 60 min but was still detectable at very low levels after 2 d
4 | GPVI-Fc: dimeric soluble glycoprotein VI-Fc fusion protein (Revacept), Fc derived from human IgG1, in clinical investigation (protein, left off: a dimerising Fc or GST, dimeric soluble glycoprotein VI-Fc fusion protein (Revacept), Fc derived from human IgG1, in clinical investigation) QSGPLPKPSLQALPSSLVPLEKPVTLRCQGPPGVDLYRLEKLSSSRYQDQAVLFIPAMKRSLAGRYRCSYQNGSLWSLPSDQLELVATGVFAKPSLSAQPGPAVSSGGDVTLQCQTRYGFDQFALYKEGDPAPYKNPERWYRASFPIITVTAAHSGTYRCYSFSSRDPYLWSAPSDPLELVVTGTSVTPSRLPTEPPSPVAEFSEATAELTVSFTNEVFTTETSRSITASPKESDSPAGPARQYYTK | No significant differences between groups | – | – | – | – | – | – | no inhibitory effect | – | minor inhibition | – | markedly and significantly less effective than GPVI-CD39 | – | – | – | no differences | – | – | –

Source: patent publication US11072643B2, “Fusion protein” (ADVANCECOR GMBH, priority 2017, dated 2021)
